Read-outs that look alike come from different tables or passages of the source.
Legend:
[1] = target: T1, human IL-1beta (human, UniProt P01584 117-269); experiment: cell-based or functional assay
[2] = target: T1, human IL-1beta; experiment: SPR (BIAcore T200); antibody captured by anti-human Fc, human IL-1beta injected (Example 52); set-up: t 1/2: unit not given here
[3] = target: T2, ANG2 (UniProt O15123 68-496, limits assumed); experiment: cell-based or functional assay
T2 sequence (looked up): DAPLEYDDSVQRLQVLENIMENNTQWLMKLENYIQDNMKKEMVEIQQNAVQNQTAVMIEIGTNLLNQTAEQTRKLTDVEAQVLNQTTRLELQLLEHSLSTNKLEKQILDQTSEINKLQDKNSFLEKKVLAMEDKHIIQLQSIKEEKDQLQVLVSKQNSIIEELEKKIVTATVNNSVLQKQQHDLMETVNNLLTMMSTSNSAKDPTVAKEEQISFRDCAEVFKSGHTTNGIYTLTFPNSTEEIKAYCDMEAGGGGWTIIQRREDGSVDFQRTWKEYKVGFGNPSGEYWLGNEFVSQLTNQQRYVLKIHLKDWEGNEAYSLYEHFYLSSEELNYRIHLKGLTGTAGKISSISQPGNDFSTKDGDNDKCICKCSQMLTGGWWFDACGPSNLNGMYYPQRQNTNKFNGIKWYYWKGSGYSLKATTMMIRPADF

[4] = target: T3, human PDGF-BB (human, UniProt P01127 82-190); experiment: cell-based or functional assay
T3 sequence (P01127 82-190 limits assumed): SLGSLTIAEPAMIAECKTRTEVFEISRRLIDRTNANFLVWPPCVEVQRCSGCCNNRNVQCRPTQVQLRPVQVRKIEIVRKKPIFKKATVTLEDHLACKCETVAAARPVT

[5] = target: T3, human PDGF-BB; experiment: cell-based or functional assay; remark: listed apart in the source
[6] = target: T4, human ANG2-RBD-mouse Fc-region fusion (human, UniProt O15123 275-496, limits assumed); experiment: SPR (BIAcore T200); ANG2-RBD-mouse Fc captured, antibody injected (Example 52)
T4 construct: domain: RBD; also called human ANG2-RBD-murine Fc-region fusion; not shown: mouse Fc-region
T4 sequence (looked up): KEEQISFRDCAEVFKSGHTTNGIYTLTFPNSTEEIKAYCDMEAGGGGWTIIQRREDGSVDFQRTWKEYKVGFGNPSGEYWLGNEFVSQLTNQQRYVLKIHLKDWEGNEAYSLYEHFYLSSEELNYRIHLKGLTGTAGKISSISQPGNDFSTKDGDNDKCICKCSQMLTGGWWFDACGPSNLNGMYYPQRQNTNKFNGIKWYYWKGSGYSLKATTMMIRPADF

[7] = target: T3, human PDGF-BB; experiment: SPR (BIAcore T200); PDGF-BB coupled on CM3 chip, antibody injected (Example 52); set-up: t½: unit not given here
[8] = target: T1, human IL-1beta; experiment: SPR (BIAcore); antibody captured by anti-Fc, IL-1beta injected
[9] = target: T5, cynomolgus IL-1beta (cynomolgus, UniProt P79182 117-268); experiment: as above
[10] = target: T1, human IL-1beta; experiment: as above; remark: listed apart in the source
Protocol: (§1) All experiments were performed at 25° C. using HBS-P (10 mM His, 140 mM NaCl, 0.05% Tween 20 pH 7.4) as running and dilution buffer. Anti-human or anti-mouse Fc antibodies were immobilized on a Series S CM5 Sensor Chip (GE Healthcare) using standard amine coupling chemistry. […] The dissociation phase was monitored for 600 sec by washing with running buffer. […] The surface was regenerated by injecting 3 M MgCl2 (for anti-human Fc antibody) or 10 mM Glycine pH 1.5 (for anti-mouse Fc antibody) for 60 sec at a flow rate of 5 μl/min. Bulk refractive index differences were corrected by subtracting the response obtained from a mock surface. Blank injections were subtracted (double referencing). The derived curves were fitted to a 1:1 Langmuir binding model using the BIAevaluation software.

[11] = target: T5, cynomolgus IL-1beta; experiment: as above; remark: listed apart in the source
Protocol: as §1

[12] = target: T1, human IL-1beta; experiment: SPR (BIAcore); Fab captured by anti-human Fab, IL-1beta injected (Example 55)
Protocol: All experiments were performed at 25° C. using HBS-P (10 mM His, 140 mM NaCl, 0.05% Tween 20 pH 7.4) as running and dilution buffer. Anti-human Fc or anti-human Fab antibodies were immobilized on a Series S CM5 Sensor Chip (GE Healthcare) using standard amine coupling chemistry. […] The dissociation phase was monitored for 600 sec by washing with running buffer. The surface was regenerated by injecting 3 M MgCl2 (for anti-human Fc antibody) or 10 mM Glycine pH 1.5 (for anti-mouse Fc antibody) for 60 sec at a flow rate of 5 μl/min. Bulk refractive index differences were corrected by subtracting the response obtained from a mock surface. Blank injections were subtracted (double referencing). The derived curves were fitted to a 1:1 Langmuir binding model using the BIAevaluation software.

B1: antibody 0032 (bispecific antibody, V domains shown)
VH 1: EVQLVESGGGLVQPGGSLRLSCAASGYDFTHYGMNWVRQAPGKGLEWVGWINTYTGEPTYAADFKRRFTFSLDTSKSTAYLQMNSLRAEDTAVYYCAKYPYYYGTSHWYFDVWGQGTLVTVSS
VL 1: DIQLTQSPSSLSASVGDRVTITCSASQDISNYLNWYQQKPGKAPKVLIYFTSSLHSGVPSRFSGSGSGTDFTLTISSLQPEDFATYYCQQYSTVPWTFGQGTKVEIK
VH 2: QVQLVQSGAEVKKPGASVKVSCKASGYTFTGYYMHWVRQAPGQGLEWIGYISSYNAFTTYNQKFRGRATFTVDTSISTAYMELSRLRSDDTAVYYCVRSDYYGTSLYWGQGTLVTVSS
VL 2: EIVLTQSPATLSLSPGERATLSCRASSSVSYMHWSQQKPGQAPRLLIYSTSNLASGIPARFSGSGSGTDFTLTISSLEPEDFAVYYCHQWSNYYTFGQGTKLEIK
notes: CrossMab; only variable domains are tied to it; also called anti-IL-1beta/VEGF antibody
[1]
  EC50, reduction of IL-6 expression upon IL-1beta stimulation of A549 cells: 0.0387 µg/mL
[2]
  Kd: 0.12 nM
  koff: 0.000305 s⁻¹
  kon: 2.49e+06 M⁻¹ s⁻¹
  t 1/2: 38

B2: antibody 0144 (bispecific antibody, human IgG1, kappa, L234A L235A)
chain 1: SYVLTQPPSVSVAPGQTARITCGGNNIGSKSVHWYQQKPGQAPVLVVYDTSDRPSGIPERFSGSNSGNTATLTISRVEAGDEADYYCQVWDSSSDHWVFGGGTKLTVLSSASTKGPSVFPLAPSSKSTSGGTAALGCLVKDYFPEPVTVSWNSGALTSGVHTFPAVLQSSGLYSLSSVVTVPSSSLGTQTYICNVNHKPSNTKVDKKVEPKSCDKTHTCPPCPAPEAAGGPSVFLFPPKPKDTLMASRTPEVTCVVVDVSHEDPEVKFNWYVDGVEVHNAKTKPREEQYNSTYRVVSVLTVLAQDWLNGKEYKCKVSNKALGAPIEKTISKAKGQPREPQVYTLPPCRDELTKNQVSLWCLVKGFYPSDIAVEWESNGQPENNYKTTPPVLDSDGSFFLYSKLTVDKSRWQQGNVFSCSVMHEALHNAYTQKSLSLSPGK
chain 2: not shown
chain 3: not shown
chain 4: not shown
notes: also called anti-PDGF-B/ANG2 antibody; clone 0144-0004
[3]
  ANG2 specific pTie2-ELISA, activity against the anti-ANG2/VEGF antibody reported in WO 2014/09465: 6 fold
[4]
  IC50 Proliferation 3T3: 0.02 nM
  IC50 Proliferation human pericytes: 0.03 nM
[5]
  IC50 Migration-Inhibition human pericytes: 0.06 nM
  IC50 Phospho-Inhibition human pericytes: 0.055 nM
[6]
  Kd: 17 nM
  koff: 0.00155 s⁻¹
  kon: 90600 M⁻¹ s⁻¹
  t½: 7.43 min
[7]
  Kd: 3 nM
  koff: 0.000215 s⁻¹
  kon: 83100 M⁻¹ s⁻¹
  t½: 53

B3: antibody 0085 FAB (Fab, V domains shown)
VH: EVQLVESGGGLVQPGGSLRLSCAASGFTFSSYWMSWVRQAPEKGLEWVSTISDGGGLTYYADSVKGRFTISRDNAKNSLYLQMNSLRAEDTAVYYCAESGGYTDWLFGYWGQGTLVTVSS
VL: not shown
[4]
  IC50 Proliferation human pericytes: 0.012 nM
[5]
  IC50 Migration-Inhibition human pericytes: 0.27 nM

B4: H34 + C52aS mutations (antibody, V domains shown)
VH: EVQLQQSGPELVKTGASVKISCKASGYSFTGYYMHWVKQSHGKSLEWIGYISSYNAFTTYNQRFRGKATFTVDTSSSTAYMQFNSLTSEDSAVYYCVRSDYYGTSLYWGQGTTLTVSS
VL: QIVLTQSPAIMSASLGEEITLTCSASSSVSYMHWSQQKSGSSPKLLIYSTSNLASGVPSRFSGSGSGTFYSLTISSVEAEDAADYYCHQWSNYYTFGGGTKLEIK
[8]
  Kd: 0.4 nM
  koff: 0.000645 s⁻¹
  kon: 1.6e+06 M⁻¹ s⁻¹
[9]
  Kd: 0.51 nM
  koff: 0.000728 s⁻¹
  kon: 1.43e+06 M⁻¹ s⁻¹
[10]
  Kd: 0.4 nM
  koff: 0.000645 s⁻¹
  kon: 1.6e+06 M⁻¹ s⁻¹
[11]
  Kd: 0.51 nM
  koff: 0.000728 s⁻¹
  kon: 1.43e+06 M⁻¹ s⁻¹

B5: huH34-2 Fab (Fab, V domains shown)
VH: QVQLVQSGAEVKKPGASVKVSCKASGYTFTGYYMHWVRQAPGQGLEWIGYISSYNAFTTYNQKFRGRATFTVDTSISTAYMELSRLRSDDTAVYYCVRSDYYGTSLYWGQGTLVTVSS
VL: EIVLTQSPATLSLSPGERATLSCRASSSVSYMHWSQQKPGQAPRLLIYSTSNLASGIPARFSGSGSGTDFTLTISSLEPEDFAVYYCHQWSNYYTFGQGTKLEIK
notes: also called huH34-2 Fab-fragment
[12]
  Kd: 0.06 nM
  koff: 0.000111 s⁻¹
  kon: 1.81e+06 M⁻¹ s⁻¹
